From publication doi:10.1101/2024.05.08.592654

Target: GFP-PNUTS^W726A-HA (non-PP1 binding mutant) (Drosophila)
Assay: affinity purification with mass spectrometry

fold more abundant with PNUTS^WT than with PNUTS^W726A: 12 fold
Substance: PP1-87B (from UniProt P12982 1-302) (enzyme)
